Common to all, as to assay: radioligand binding
Experiment [1] addresses CD45Δ826/CD44(Reg.I) fusion protein (mouse) (UniProt P06800).
For experiment [2], the target named is CD44(GP85)Δ320, purified from transfected COS cells (mouse).
For experiment [3], the target named is CD44(GP85)Δ355, purified from transfected COS cells (mouse).

pKd: −log10 of the molar value.

Broadly, the pKd is −log10 of the Kd, conventionally taken in molar units. As for “Erythrocyte ankyrin (from UniProt P16157 1-1881) (natural protein)”, the Ankyrin binding (cpm) in experiment [1] is 1160 cpm. Besides, the pKd is 8.59 in experiment [2] and 9.00 in experiment [3].
